Source: US10654915B2, “Antibodies useful in passive influenza immunization” (priority 2011, dated 2020)
Where two headings read alike, the source gives them in different places.

How the values were obtained:
[1] = tested on: H1N1 Influenza A/Ca/04/09; experiment: Comparison to treatment with Tamiflu in infected mice; type: in vivo
[2] = molecular target: H1 HA; type: binding, influenza A; settings: read-out: affinity
[3] = molecular target: H5 HA; type: binding, influenza A; settings: read-out: affinity
[4] = molecular target: H3 HA; type: binding, influenza A; settings: read-out: affinity
[5] = tested on: H1N1; type: cell-based, influenza A
[6] = tested on: H7N3; type: cell-based, influenza A
[7] = tested on: H5N1; type: cell-based, influenza A
[8] = tested on: H9N2; type: cell-based, influenza A
[9] = molecular target: H3N2 A/Perth/16/2009 HA; type: binding, influenza A
[10] = molecular target: H3N2 A/New York/55/2004 HA; experiment: Affinity by FortéBio; type: binding, influenza A
[11] = molecular target: H3N2 A/Hong Kong/8/68 HA; type: binding, influenza A
[12] = molecular target: H7N7 A/Netherlands/219/03 HA; type: binding, influenza A
[13] = molecular target: H7N3 A/Canada/rv444/04 HA; type: binding, influenza A
[14] = tested on: H3N2 A/Perth/16/2009; experiment: MDCK monolayer microneutralization assay; type: cell-based, influenza A
[15] = tested on: H3 A/Phillipines/2/82 x-79; experiment: MDCK monolayer microneutralization assay; type: cell-based, influenza A
[16] = tested on: H3 A/Udorn/307/1976; experiment: MDCK monolayer microneutralization assay; type: cell-based, influenza A
[17] = tested on: H3N2 A/New York/55/2004; experiment: MDCK monolayer microneutralization assay; type: cell-based, influenza A
[18] = tested on: H3N2 A/Wisconsin/67/2005; experiment: MDCK monolayer microneutralization assay; type: cell-based, influenza A
[19] = tested on: H3N2 A/Hong Kong/8/68 (A/HongKong/68); experiment: MDCK monolayer microneutralization assay; type: cell-based, influenza A
[20] = tested on: H3 A/SW/MN/02719; type: cell-based, influenza A
[21] = tested on: H4 (H4N4) A/Bufflehead; type: cell-based, influenza A
[22] = tested on: H7N3 A/Canada/rv444/04; type: cell-based, influenza A
[23] = tested on: H7N7 A/Netherlands/219/03; type: cell-based, influenza A
[24] = tested on: H7 A/Sanderling/A106-125; experiment: MDCK monolayer microneutralization assay; type: cell-based, influenza A; settings: H7 A/Sanderling/A106-125, bird virus
[25] = tested on: H7 A/Redknot/NJ/1523470/06; experiment: MDCK monolayer microneutralization assay; type: cell-based, influenza A; settings: H7 A/Redknot/NJ/1523470/06, bird virus
[26] = tested on: H7 A/Ruddy Turnstone/A106-892; experiment: MDCK monolayer microneutralization assay; type: cell-based, influenza A; settings: H7 A/Ruddy Turnstone/A106-892, bird virus
[27] = tested on: H10 (H10N7) A/Northern Shoveler; type: cell-based, influenza A
[28] = tested on: H3N2: A/Perth/16/09; parameters: species or system mice; settings: mouse, in vivo, ip, 10 mg/kg
[29] = tested on: H7N3: A/Red Knot/NJ/1523470/06; parameters: species or system mice; settings: mouse, in vivo, ip, 10 mg/kg
[30] = tested on: A/Ca/04/09 (H1N1); experiment: In vivo efficacy, treatment at Day 2; parameters: species or system mice; settings: IP at Day 2, 10 mg/kg (mixture 10 mg/kg each), FIGS. 6A, 6C
[31] = tested on: Philippines 2/82; parameters: species or system mice; settings: mouse, in vivo
[32] = tested on: H3; experiment: Binding by MAB579 in vitro (FIG. 2); parameters: species or system influenza A; settings: H3, FIG. 2
[33] = tested on: H7; experiment: Binding by MAB579 in vitro (FIG. 2); parameters: species or system influenza A; settings: H7, FIG. 2
[34] = tested on: H1; experiment: Binding by MAB579 in vitro (FIG. 2); parameters: species or system influenza A; settings: H1, FIG. 2
[35] = molecular target: HA of clades spanning Group 2; experiment: Standard FortéBio assay (FIG. 3B); type: binding, influenza A; settings: Group 2, FIG. 3B

## CCOC(=O)C1=C[C@@H](OC(CC)CC)[C@H](NC(C)=O)[C@@H](N)C1 [Tamiflu, oseltamivir phosphate, reference compound]
[1]; 10 mice per group, treatment from Day +1, to Day 14
  survival: all but two mice were dead before eight days post infection
[1]; by Day 14
  weight attained, of the original weight: 92%
[1]; treatment from Day +1
  day at which decline in weight was reversed: ≤ 6 days

B1: MAB8 (antibody)
VH: EVQLVESGGGLVKPGGSLRLSCAASGFTFSTYTMSWVRQAPGQGLEWVSSITRTSSNIYYADSVEGRFTISRDNAKNSLYLQMHSLRVEDTAVYYCARISGVVGPVPFDYWGQGTLITVSS
light: DIQMTQSPSSLSASVGDRVTITCRASQTISKYLNWYQQKPGRAPKLLIYSASSLQSGVPSRFTGSGSGTDFTLTITSLQPEDFATYYCQQSYRPSQITFGPGTKVDIK
modifications: CHAIN (1)...(121) MAB8 heavy chain sequence of variable domain; CHAIN (1)...(108) MAB8 light chain sequence
[2]
  Kd: 9 nM
[3]
  Kd: 0.2 nM
[4]
  Kd: 16 nM
[5]
  neutralization of infection (in words): does not neutralize infection
[6]
  neutralization of infection (in words): does not neutralize infection
[7]
  neutralization of infection (in words): does not neutralize infection
[8]
  neutralization of infection (in words): does not neutralize infection

B2: MAB579 (antibody, V domains shown)
VH: QVQLVQSGAEVKKPGASVKVSCKTSGYTFTAYTIHWVRQAPGQRLEWMGWINAGNGHTKYSQRFKGRVTITRDTSARTTYMELRSLTSEDTALYFCARGPETYYYDKTNWLNSHPDEYFQHWGHGTQVTVSS
VL: DIQMTQSPSTLSASVGDRVTITCRASQTINNYLAWYQQKPGKAPKLLIYKASSLESGVPSRFSGSGSGTEFTLTISSLQPDDFATYYCQEYNNDSPLTFGGGTKVEIK
modifications: CHAIN (1)...(132) MAB579 heavy chain sequence of variable domain; DOMAIN (31)...(35) CDR1; DOMAIN (50)...(67) CDR2; DOMAIN (99)...(121) CDR3; CHAIN (1)...(108) MAB579 light chain sequence of variable domain; DOMAIN (24)...(34) CDR1; DOMAIN (50)...(57) CDR2; DOMAIN (89)...(98) CDR3
[9]; read-out: Affinity by FortéBio
  Kd: 0.7 nM
[9]; read-out: KD
  Kd: 0.8 nM
[10]
  Kd: 0.2 nM
[11]
  Kd: 0.2 nM
[12]; read-out: Affinity by FortéBio
  Kd: 0.4 nM
[12]; read-out: KD
  Kd: 0.4 nM
[13]
  Kd: 0.6 nM
[14]; H3 A/Perth/16/2009
  IC50: 0.2 µg/mL
[14]; MAB579 vs CR8020 EC50, H3N2 A/Perth/16/2009
  Potency Difference: 40x
[14]; in vitro neutralization, H3N2 A/Perth/16/2009
  EC50: 0.05 µg/mL
[15]
  IC50: 0.9 µg/mL
[16]
  IC50: 1.9 µg/mL
[17]; H3 A/New York/55/2004*
  IC50: 1.1 µg/mL
[17]; MAB579 vs CR8020 EC50, H3N2 A/New York/55/2004
  Potency Difference: 5x
[17]; in vitro neutralization, H3N2 A/New York/55/2004
  EC50: 2.0 µg/mL
[18]; H3 A/Wisconsin/67/2005
  IC50: 1.0 µg/mL
[18]; MAB579 vs CR8020 EC50, H3N2 A/Wisconsin/67/2005
  Potency Difference: 3x
[18]; in vitro neutralization, H3N2 A/Wisconsin/67/2005
  EC50: 1.0 µg/mL
[19]; H3 A/HongKong/68
  IC50: 2.8 µg/mL
[19]; MAB579 vs CR8020 EC50, H3N2 A/Hong Kong/8/68
  Potency Difference: 3x
[19]; in vitro neutralization, H3N2 A/Hong Kong/8/68
  EC50: 2.0 µg/mL
[20]
  IC50: 3.9 µg/mL
[21]
  EC50: 15.0 µg/mL
  IC50: 15.5 µg/mL
  Potency Difference: 3x
[22]
  EC50: 0.5 µg/mL
  IC50: 1.6 µg/mL
[23]
  EC50: 0.7 µg/mL
  IC50: 0.6 µg/mL
  Potency Difference: 20x
[24]
  IC50: >20 µg/mL
[25]
  IC50: >20 µg/mL
[26]
  IC50: >20 µg/mL
[27]
  EC50: 0.8 µg/mL
  IC50: 0.8 µg/mL
[28]
  therapeutic effectiveness (survival): essentially fully effective
[29]
  therapeutic effectiveness (survival): essentially fully effective
[30]
  protection / survival: no survivors after 10 days
[31]
  protection / survival: effective
[32]
  binding affinity (in words): tightly bound
[33]
  binding affinity (in words): tightly bound
[34]
  binding affinity (in words): negligible binding affinity
[35]
  affinity across clades (in words): sub-nM affinity
